The text below walks through data of the supplement of paper PMC12042874.

± gives the uncertainty stated by the source.

The data set in a line: amyloid nucleation score (Sup35N fusion, yeast selection) (log enrichment); library NNK2; higher = more nucleation; inactive = no reads after selection. The method, boiled down:
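The nucleation score equals the log enrichment of output over input reads from DiMSum, centred on the mode score of non-aggregating sequences. It was computed only for sequences with 100 or more input reads. The reads came from Illumina sequencing of plasmid inserts from psi-negative yeast expressing Sup35N fused to peptides of 20 random codons, induced with 100 μM copper sulfate for 24 hours and grown 7 days at 30°C without adenine and uracil.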
For CSYVAGETSLERSHCILGWS, the amyloid nucleation score is 0.161 ± 0.34.
The value for ICKGVRKIWSFGDMSWCRES was “inactive”; that for TFLTLA was 0.979 ± 0.4.
In the case of MFTKDISGFLGVLGHVVVLG it was -0.237 ± 0.63; in that of FMIMNYNQLCINRCLNGGRV, 9.059 ± 0.044; in that of LWMVFSGNALEKYSSDFCHC, -1.22 ± 0.78.
Substance LFCTRMEVSLLGFWNSYAEL displayed an amyloid nucleation score of -0.01 ± 0.45.
In the case of LKEHYF it was -1.44 ± 0.55; in that of ILKGNNSS, -1.2 ± 0.62.
DFCSLATYGKRGFCDMYYYV displayed an amyloid nucleation score of 0.343 ± 0.35.
The value for SFWISVGLWFWLGEYMGRNE was 2.17 ± 0.12; that for TWLIRPKWVSVQVIRMLPMV was 1.11 ± 0.41; that for YVNPKVAWAGIDSAAEEDSD was 0.047 ± 0.49.
The substance CRTRL returned an amyloid nucleation score of 0.505 ± 0.39.
As to WPNFV, the amyloid nucleation score was -0.995 ± 0.76.
As for IYNMRHSMTMFHCYGFLRRV, the amyloid nucleation score was -0.976 ± 0.63.
With SGGLLKRWYRVDLGVVRYLY, the amyloid nucleation score entry is “inactive”.
With GCSNVCERGS, the amyloid nucleation score entry is “inactive”.
GKFLCDV came in with an amyloid nucleation score of 0.775 ± 0.31.
In the case of WWSARYRGTLD it was 1.57 ± 0.24; in that of GVTKNCSC, -0.036 ± 0.63; in that of FNVDKRPRSDVCLAGCISD, -0.825 ± 0.56.
Consider DAKPVCIDGLFI, for which the amyloid nucleation score was -0.839 ± 0.56.
The substance NYVVE came in with an amyloid nucleation score of 4.73 ± 0.069.
In the case of RFSCLSELSFLYFGSH it was 5.059 ± 0.034; in that of TYYFVVQFI, 8.284 ± 0.036; in that of ICKRVVVLWHSKEPDALFVG, “inactive”.
In turn, SFVTYSNSLFFTISSDSK returned an amyloid nucleation score of 6.826 ± 0.054.
In the case of DYSSVVYNDGIWKGAPNFK it was -2.05 ± 0.78.
In the case of SVNYVCISLVVM it was 7.14 ± 0.072.
Substance IATYIR registered an amyloid nucleation score of -0.179 ± 0.63.
The value for HMQPYIRESISVG was “inactive”; that for NSVRNTYWKAPGNLTEGVSG was -0.054 ± 0.4.
In the case of MEVADC it was 0.591 ± 0.35; in that of AFPNNFTRLYALEVLFGFRN, 2.1 ± 0.21; in that of FVFYSEEGLGHDLSNFTGGI, “inactive”.
SDYVYKFSVAWWVPVSSVVK had an amyloid nucleation score of 0.701 ± 0.38.
The value for DSRIGYTSYQRFTMKSNVLC was 0.024 ± 0.44; that for VPVFFGPFQYT was -0.419 ± 0.63.
The value for GSASLCNSAERVYV was 0.681 ± 0.55; that for PFVTFATVFLLKPMVFAKQC was 1.23 ± 0.38.
As for ATIWCCRVKGQVGSFNL, the amyloid nucleation score turned out to be 0.868 ± 0.14.
Turning to CPLRLTRGLKCRVYINWEHQ, the amyloid nucleation score is 0.354 ± 0.48.
MRHMYRPPIVSLHRVAIGFM gave an amyloid nucleation score of -0.906 ± 0.63.
In the case of LYIIMMICIQSLFRYRGIKG it was -0.975 ± 0.78; in that of VTGDMTLFAWNLMGA, 0.625 ± 0.43; in that of CIDVSLFNGHACWIVCFSPV, 5.48 ± 0.045.
TYQFMHVRLFRPMTSFIVYG had an amyloid nucleation score of 0.36 ± 0.56.
CVCLD gave an amyloid nucleation score of 0.1 ± 0.33.
As to SFFMEDQCTRPLVWEVRVFN, the amyloid nucleation score amounted to 0.049 ± 1.1.
In the case of IRSKSWVVDTQFRPIDSLLV it was 0.646 ± 0.49; in that of NSAPRGQCRSVFGLMYSYSI, “inactive”.
TIGRGYGSISQRHAIRLGDN: the amyloid nucleation score was found to be 0.164 ± 0.8.
The value for LYDIDWRFRHKDAHQCKVDR was -0.184 ± 1.1; that for KLQFVGFCTNDAKYKGRIPG was 2.35 ± 0.089.
In the case of NMPEFC, the amyloid nucleation score worked out at 0.283 ± 0.21.
In the case of LLIFGVVLRVMNVVDPIRDI it was -1.13 ± 0.55; in that of LWFGTIHNNTVGSNIDFTFT, 4.71 ± 0.092; in that of KSGLTQLLQILSSCLELGIW, 0.38 ± 0.51.
Substance FANRILCVVSGINRVTGL had an amyloid nucleation score of 0.192 ± 0.34.
Turning to FQVSCVHQVPRAAGVADGAV, the amyloid nucleation score amounted to 0.375 ± 0.21.
In the case of AVFNGFKNNSLV it was -0.146 ± 1; in that of VYMHASCSERSMDESRNRVD, “inactive”.
The substance AFCTKCASMRAILRGGGLVW gave an amyloid nucleation score of -0.109 ± 0.76.
Regarding MFIGLLVLRLLFAYQNDKSY, the amyloid nucleation score came out at 0.153 ± 0.79.
TGYAWGG had an amyloid nucleation score of 2.16 ± 0.22.
The substance KRSVAVFRRCV came in with an amyloid nucleation score of 0.817 ± 0.44.
On to RGSVVLNSVWVMLDMYCLLP, for which the amyloid nucleation score was 1.82 ± 0.28.
In the case of ASSYMRWVEARTRYLACAEN it was 4.665 ± 0.046; in that of SMFLMSCTDGVFHNRNLHVI, -0.662 ± 0.44; in that of YEGLF, “inactive”.
In the case of CFDCNIRGSVWKVYISLIVG it was “inactive”.
The value for LSMEVRGMVATMVVTWNFVS was 0.07 ± 0.32.
As for RGVVGLDSIRWPSFGAVMKF, the amyloid nucleation score is -0.757 ± 0.48.
In the case of FIFLNNIHTYIYYVR it was 6.292 ± 0.034; in that of SYTCSS, -0.211 ± 0.48; in that of NRILWSPNEKLLKHVTQVTL, -0.795 ± 0.61.
LFVLLSDKTHSYSYAECQPM showed an amyloid nucleation score of 3.65 ± 0.052.
In the case of PCISDIFKMDNIYGQQSLFP it was -0.266 ± 1.1; in that of CAGPPLLAKVGWIIMYSLVV, 0.258 ± 0.55; in that of HRDHGTISLHRKCSYVALAS, 1.14 ± 0.29.
In the case of VFQSDECVFLCSN it was -0.561 ± 0.55; in that of RYDSMIHRSVGWPGSYNKGH, -0.287 ± 0.31; in that of ITINSMSPRLPIRLRVVWKG, “inactive”.
CSVNNSSLCIVVVAWFCGLD displayed an amyloid nucleation score of 0.711 ± 0.45.
In the case of KDPLNYNSYSVLLDIWWNLS it was 1.57 ± 0.15; in that of CRGDRFSRSST, -0.217 ± 0.79; in that of GVQTFVMTPTCKRNWLQDGR, 0.233 ± 0.27.
As to ASGDGLNFWPFRSPTDAQRA, the amyloid nucleation score amounted to 0.775 ± 0.5.
In the case of LVFTCGWSDTRE it was 5.08 ± 0.089.
In the case of ILGVLGFGGSRDRLSTRWGS it was 1.66 ± 0.16; in that of YVCTRWVAYYLEWYGLDGPV, 0.665 ± 0.45.
SLPGLGFLRLFFQ returned an amyloid nucleation score of 0.089 ± 0.55.
The substance DSWSIMWSLC gave an amyloid nucleation score of -0.272 ± 1.1.
The value for LLQKFVMGGEVRRESGGVRC was 0.726 ± 0.25; that for PTMEPVVHITLDCVYKDF was “inactive”.
In the case of LILLY it was -0.277 ± 1; in that of SQRRKQLEYHAVLWY, -0.289 ± 0.76.
The value for GEQMWGYCRLYRGTGRGALG was 1.85 ± 0.16; that for KMHLAQ was “inactive”; that for RLNVKDYFCYIAQESKTTDR was 4.76 ± 0.083.
For the substance VYYGVYLMSCFVAGGYFYCF, the amyloid nucleation score was 3.75 ± 0.061.
The value for LSGLRSFLRRWRGQVKPVLV was -0.133 ± 1.
